How the values were obtained:
[1] = target: truncated variant of ZapT-His that lacks the C-terminal sensor domain (Caulobacter crescentus); assay: SEC; Superdex 200 PC3.2/30; 25 mM Tris-HCl pH 7.5, 300 mM NaCl, 20% sucrose; 20 ul/min; fractions on SDS-15% PAGE, Coomassie; single proteins and mixtures (also His-ZauP + ZapT-His + ZapTΔC-His with ZapT-His as internal control)
[2] = target: the molecule itself; assay: as above

For “truncated variant of ZapT-His that lacks the C-terminal sensor domain (domain or fragment)”, the stoichiometry N [1] was 2.

B1: ZapT with a C-terminal hexahistidine tag (natural protein, Caulobacter crescentus, UniProt A0A0H3C832 1-141, looked up)
chain: MAKGPNAFRTISEAAEELGVPQHVLRFWETKFSFIRPMKRAGGRRFYRPQDIAVLNGVRTLLHSEGLTIKGVQKLHRDHGLAHVIAAGLGSNGSASLEAEYDYAPRGKERPVGEETRDRLAFALADLTAIKSRLDGLLARG
notes: tagged protein printed as 21 kDa; the last residue of ZapT is printed as Gly141; also called ZapT-His; wild-type ZapT-His; source: E. coli, purified (procedure in Text S1); not shown: His6, C-terminal, kept
With B1 the “stoichiometry N” value [2] was 2.

B2: ZauP with an N-terminal hexahistidine-SUMO tag (natural protein, Caulobacter crescentus, UniProt A0A0H3CD23 1-127, looked up)
chain: MIPADSTALDLAVRRLERAVSQLEQRLAAKAAETQRALAAAATSAVALPLAVTEPSLFDDDERARLVADLEAAREREKALEEAGEQASVALGRAIAEIRAALGDESVANDLHAPGDDDDLFEDSEEA
notes: ZauP, functional ZapB homolog of Caulobacter crescentus NA1000, locus CCNA_03357; tagged protein printed as 26 kDa; primers Nhis-SUMO-zapB-P3/P4 run from the start codon to the stop codon; also called His-ZauP; source: E. coli, purified (procedure in Text S1); not shown: His6-SUMO, N-terminal, kept
With B2 the “stoichiometry N” value [2] was 6.

B3: ZapA with an N-terminal hexahistidine-MBP tag (natural protein, Caulobacter crescentus, UniProt A0A0H3CCW6 1-108, looked up)
chain: MAQVTIQVNGRPYMVGCEDGQEPHLTELARLFDRQVRQVSQDVGQLGETRLFLMGALLLADELSDMKLRLAHANAEIARMQQEGTKAEIAAIRALDAAAERIEKLATE
notes: ZapA, Z-ring-associated protein of Caulobacter crescentus NA1000, locus CCNA_03356; tagged protein printed as 56 kDa; primers NhisMBP-zapA-fwd/rev run from the start codon to the stop codon; also called His-ZapA; source: E. coli, purified (procedure in Text S1); not shown: His6-MBP, N-terminal, kept
For B3, the “stoichiometry N” value [2] was 4.

Source: article PMC7858052, “Z-Ring-Associated Proteins Regulate Clustering of the Replication Terminus-Binding Protein ZapT in Caulobacter crescentus” (mBio, 2021)
